Experimental data published in article PMC3882142.

Biological target: bacteriophage P22 coat protein (CP), assembled as the P22 VLP capsid (bacteriophage P22) (UniProt P26747)
Assay: SEC-MALS

Chain of UniProt P26747 (P26747 whole entry): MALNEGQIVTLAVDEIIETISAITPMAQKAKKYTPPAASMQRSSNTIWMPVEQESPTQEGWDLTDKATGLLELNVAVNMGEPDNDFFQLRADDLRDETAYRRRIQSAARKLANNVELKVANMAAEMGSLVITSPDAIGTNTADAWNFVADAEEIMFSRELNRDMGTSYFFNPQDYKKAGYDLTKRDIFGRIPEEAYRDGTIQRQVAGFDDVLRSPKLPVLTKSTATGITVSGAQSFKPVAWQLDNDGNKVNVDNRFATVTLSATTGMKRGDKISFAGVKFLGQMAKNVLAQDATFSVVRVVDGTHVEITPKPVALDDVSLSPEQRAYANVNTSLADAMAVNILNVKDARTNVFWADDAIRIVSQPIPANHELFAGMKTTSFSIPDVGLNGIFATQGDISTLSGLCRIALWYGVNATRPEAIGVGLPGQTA

| Substance | stoichiometry N (proteins per capsid) |
| --- | --- |
| GalA-SP fusion protein (alpha-galactosidase of Pyrococcus furiosus fused to the truncated scaffold protein of P22) | 183 |
| HA_(head)-SP fusion protein (hemagglutinin head of influenza fused to the truncated scaffold protein of P22) | 286 |
